Measurements from patent US20160215065A1 (Genentech, published 2016).
“And” between values parts separate entries of the source, which are not always exact repeats. Identical values can stand only once.

T1: mouse zymogen NSP4 (mZ) (mouse), Q14B24
T1 chain: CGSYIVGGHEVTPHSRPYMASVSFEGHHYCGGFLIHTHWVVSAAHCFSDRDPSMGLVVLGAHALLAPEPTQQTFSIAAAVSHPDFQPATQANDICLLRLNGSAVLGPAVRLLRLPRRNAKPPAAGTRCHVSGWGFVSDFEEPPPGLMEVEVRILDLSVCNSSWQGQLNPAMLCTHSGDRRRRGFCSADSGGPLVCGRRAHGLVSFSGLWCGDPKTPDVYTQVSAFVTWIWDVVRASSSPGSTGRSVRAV

T2: mouse active NSP4 (mA) (mouse), Q14B24
T2 chain: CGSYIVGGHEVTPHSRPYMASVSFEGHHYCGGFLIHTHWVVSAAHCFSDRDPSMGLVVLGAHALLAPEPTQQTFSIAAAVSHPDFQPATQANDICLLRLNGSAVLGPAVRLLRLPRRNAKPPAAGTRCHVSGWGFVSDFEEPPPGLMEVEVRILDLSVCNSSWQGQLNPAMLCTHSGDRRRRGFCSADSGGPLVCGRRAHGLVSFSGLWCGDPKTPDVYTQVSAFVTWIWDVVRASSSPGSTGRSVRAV

T3: recombinant mouse NSP4 (form not stated) (mouse, UniProt Q14B24 40-284, limits assumed)
T3 construct: also called mNSP4; soluble mNSP4
T3 sequence (looked up): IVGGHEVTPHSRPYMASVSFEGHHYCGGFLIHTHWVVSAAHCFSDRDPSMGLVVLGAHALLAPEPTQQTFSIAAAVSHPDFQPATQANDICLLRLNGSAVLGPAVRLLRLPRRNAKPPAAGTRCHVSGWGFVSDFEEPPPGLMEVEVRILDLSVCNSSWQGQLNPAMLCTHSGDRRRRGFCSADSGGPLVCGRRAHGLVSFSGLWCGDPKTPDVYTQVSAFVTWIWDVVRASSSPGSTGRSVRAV


What was measured:
[1] = molecular target: T1, mouse zymogen NSP4 (mZ) (mouse), Q14B24; experiment: BLI affinity class in summary table; settings: remark: other sources report otherwise
[2] = molecular target: T2, mouse active NSP4 (mA) (mouse), Q14B24; experiment: BLI affinity class in summary table; settings: remark: other sources report otherwise
[3] = molecular target: T2, mouse active NSP4 (mA) (mouse), Q14B24; experiment: competition phage ELISA (phage IC50); soluble mA-NSP4 against plate-coated NSP4; settings: remark: other sources report otherwise
[4] = molecular target: T3, recombinant mouse NSP4 (form not stated); experiment: ratio of phage IC50 values against the parental clone 51.WT
[5] = molecular target: T3, recombinant mouse NSP4 (form not stated); experiment: phage competition binding assay (phage IC50); soluble mNSP4 competitor

| Binder | Kd [1] | Kd [2] | IC50 [3] | Affinity improvement to mNSP4 [4] | IC50 [5] |
| --- | --- | --- | --- | --- | --- |
| anti-NSP4 antibody 5-2 (antibody, V domains shown) VH: EVQLVESGGGLVQPGGSLRLSCAASGFTFSNTYISWVRQAPGKGLEWVGFIYPANGATYYADSVKGRFTISADTSKNTAYLQMNSLRAEDTAVYYCARRYRLSFDYWGQGTLVTVSS VL: DIQMTQSPSSLSASVGDRVTITCRASQDVSTAVAWYQQKPGKAPKLLIYSASFLYSGVPSRFSGSGSGTDFTLTISSLQPEDFATYYCQQSYTTPPTFGQGTKVEIKR | > 50 nM and < 1000 nM | < 50 nM | 25 nM |  |  |
| affinity matured anti-NSP4 antibody clone 51.59 (Fab, V domains shown) VH: EVQLVESGGGLVQPGGSLRLSCAASGFTFSGSGIHWVRQAPGKGLEWVAWISPTGGNTYYADSVKGRFTISADTSKNTAYLQMNSLRAEDTAVYYCARVFFHNVAFDYWGQGTLVTVSS VL: DIQMTQSPSSLSASVGDRVTITCRASQDVSTAVAWYQQKPGKAPKLLIYSASFLYSGVPSRFSGSGSGTDFTLTISSLQPEDFATYYCQQNFSSPPTFGQGTKVEIKR |  |  |  | 196 fold | 0.095 nM |
